# From the supplement of paper PMC9732359
# ± gives the uncertainty stated by the source.
# Assay: protein stability index of a GFP-peptide fusion (yeast GPS) (PSI 1-4); higher = more stable; sorted into four equal gates, so the index is relative within each strain
# How it was run: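 The protein stability index combines read frequencies across sorting gates, each weighted by its gate number and then summed. To obtain those frequencies, a pooled yeast library of GFP fusions to tiled 17-residue yeast protein peptides, on a plasmid also expressing Cherry, was grown to mid-log phase in leucine-free medium. The cells were sorted into four equal gates by GFP/Cherry ratio before plasmid amplification by PCR and Illumina sequencing.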
Sequence,protein stability index (doa10∆),protein stability index (pdr5∆),protein stability index (san1∆),protein stability index (ubr1∆)
IKPKIALQDKEITSVLS [SNF12],2.31 ± 0.082,2.39 ± 0.1,2.36 ± 0.16,2.28 ± 0.093
PYEMYKYVHVSEVGNCS [FAS2],2.23 ± 0.056,2.53 ± 0.062,2.11 ± 0.068,2.11 ± 0.048
KHEEIDTKNLYVIKALQ [RPS10A],1.6 ± 0.085,2.02 ± 0.078,1.64 ± 0.12,1.46 ± 0.077
SVLHSWVQLVQIIVTDG [YJL039C/NUP192],1.58 ± 0.049,1.98 ± 0.056,1.28 ± 0.085,1.54 ± 0.055
IFSQMSRLLDILEDYCY [ISW2],1.66 ± 0.048,2.8 ± 0.094,2.03 ± 0.11,3.01 ± 0.092
KLANFFSKKGNEPLSEI [YAR002W/NUP60],2.82 ± 0.095,3.17 ± 0.076,3.14 ± 0.067,3.13 ± 0.099
DMATGSNDTTAFNDSCV [SRB8],2.73 ± 0.05,3.07 ± 0.06,3.14 ± 0.045,2.86 ± 0.037
IKRTDEGGEAEFIFGTY [ARP7],3.35 ± 0.093,3.3 ± 0.11,3.37 ± 0.056,3.36 ± 0.045
FNDSQAIVCYILFELYK [SRP72],1.95 ± 0.056,2.31 ± 0.047,2.01 ± 0.061,2.36 ± 0.053
MNVQDRRRLLGPAAAKP [MTR3],3.23 ± 0.11,3.1 ± 0.11,2.96 ± 0.085,2.97 ± 0.089
TIANSIILHFANFGEIL [YMR153W/NUP53],2.15 ± 0.055,2.38 ± 0.054,2.23 ± 0.062,2.27 ± 0.062
TSELGNDDFSEVFEFKT [BRR2],3.04 ± 0.14,3.08 ± 0.097,2.41 ± 0.083,2.7 ± 0.099
LYKFQNFQDLSYLSETL [YML103C/NUP188],2.94 ± 0.091,2.87 ± 0.08,2.64 ± 0.12,2.49 ± 0.11
LSISVPSDVNIDVMKSQ [SNU114],2.86 ± 0.057,2.84 ± 0.057,2.57 ± 0.053,2.78 ± 0.044
LFKRDCNQMENLLESIT [YCS4],–,2.17 ± 0.12,–,2.38 ± 0.22
LDLKECYQFAEYLFKPQ [ARP7],3.05 ± 0.084,3.06 ± 0.08,3.03 ± 0.063,2.97 ± 0.059
HQHGDKVDIFEIPETGE [FAS2],–,2.75 ± 0.28,–,2.54 ± 0.069
FNKEQLNKFKKAIFQFV [ECM29],1.58 ± 0.15,1.27 ± 0.096,–,1.15 ± 0.069
IRITSLQGDLTFTKKCL [SIR4],2.87 ± 0.068,2.71 ± 0.078,2.81 ± 0.085,2.79 ± 0.059
PHSLATKTTGKCGSVTV [RPS2],1.2 ± 0.12,1.27 ± 0.1,–,–
YMEQGNNKIITLVKGPK [SKI6],2.76 ± 0.054,3.11 ± 0.085,2.8 ± 0.054,2.96 ± 0.034
NLEFNYTKPYPNFEASF [SMC2],2.76 ± 0.09,2.21 ± 0.1,2.43 ± 0.15,2.74 ± 0.13
GQVVLTPLTFALPRGAR [RPL14A],1.5 ± 0.074,1.55 ± 0.071,1.18 ± 0.11,1.89 ± 0.073
QAISYLHKLQRMRLRAL [GRR1],1.77 ± 0.057,1.74 ± 0.053,1.8 ± 0.055,1.49 ± 0.028
ILVFQVSMKANKYQIKK [RPL25],1.93 ± 0.052,2.2 ± 0.054,3.09 ± 0.046,3.03 ± 0.045
ERVMKNKVEENLEGLYL [RPT2],3.12 ± 0.11,3.28 ± 0.067,3.07 ± 0.14,3.35 ± 0.12
LFKALKVILNERGGKFH [RGR1],2.44 ± 0.075,2.64 ± 0.068,2.17 ± 0.094,2.64 ± 0.059

Sequence,protein stability index (doa10∆),protein stability index (pdr5∆),protein stability index (san1∆),protein stability index (ubr1∆)
LGSLTVEDYLSSVTSDS [RPC82],2.95 ± 0.11,3.02 ± 0.076,2.19 ± 0.22,3.2 ± 0.074
EFIAAVNNPQEETSHLL [RPN10],2.33 ± 0.12,3 ± 0.091,3 ± 0.14,2.82 ± 0.068
RGHRIRREFKQYSLERN [PRP8],2.44 ± 0.17,2.61 ± 0.094,2.81 ± 0.23,1.97 ± 0.12
AQKCGWTIPHKKWNDLK [SIR2],3.25 ± 0.057,3.26 ± 0.086,3.26 ± 0.058,2.94 ± 0.038
LNESRSQHKKILEELDF [SMC3],3.38 ± 0.12,3.26 ± 0.098,3.01 ± 0.069,3.06 ± 0.082
QRDAEISQPKSMSGRIS [BRR2],3.22 ± 0.058,3.3 ± 0.055,3.23 ± 0.062,3.18 ± 0.051
STLLCTDLESKSRMINF [SNU114],2.62 ± 0.05,2.96 ± 0.052,2.67 ± 0.044,2.79 ± 0.038
SSVYRLKFAVQVDKVTK [RPL26A],1.67 ± 0.16,–,2.71 ± 0.24,2.78 ± 0.27
NTFGSSSLFNNSTNSNT [YJL041W/NSP1],2.42 ± 0.06,2.44 ± 0.053,3.12 ± 0.041,2.5 ± 0.05
EINNLIQLPASLAATYS [ARP9],1.59 ± 0.063,1.87 ± 0.045,1.96 ± 0.07,1.65 ± 0.047
SPSYSPTSPAYSPTSPS [RPO21],2.93 ± 0.05,2.85 ± 0.052,2.81 ± 0.048,3.08 ± 0.032
AALKKTRKAARPQKLRA [RPL6A],2.96 ± 0.071,3.09 ± 0.05,2.97 ± 0.043,3.16 ± 0.055
NATEVQKESDAKNETNS [ITC1],2.67 ± 0.077,3.05 ± 0.11,2.67 ± 0.11,2.59 ± 0.2
ALGEFADWDPESMAYTA [YML031W/NDC1],3.52 ± 0.14,3.54 ± 0.089,3.36 ± 0.083,3.26 ± 0.064
KIDSHVVLSFSGLNADS [PRE6],1.8 ± 0.062,1.72 ± 0.069,2.48 ± 0.073,2.19 ± 0.054
IRENKVTYSRVSKKVDV [BRN1],2.76 ± 0.1,2.93 ± 0.11,2.94 ± 0.081,3.04 ± 0.087
MERFSVLCNSNISKSRA [RRP6],2.42 ± 0.066,2.46 ± 0.096,1.98 ± 0.084,2.12 ± 0.056
VTAEDFKQAKERVMKNK [RPT2],3.69 ± 0.23,3.52 ± 0.12,3.52 ± 0.11,3.42 ± 0.11
DQDRGAARHKQHEQGTF [RRI2],3.21 ± 0.1,2.99 ± 0.23,–,–
MTEHETKDKAKKIREIY [BRR2],2.6 ± 0.17,2.69 ± 0.11,2.27 ± 0.18,2.35 ± 0.1
LKNKREIYRISFQLSKI [RPS9B],3.34 ± 0.18,3.66 ± 0.16,3.54 ± 0.062,3.38 ± 0.12
PSTSSNMDVGNPRKRKA [GAL11],2.65 ± 0.18,2.25 ± 0.12,2.75 ± 0.12,3.27 ± 0.088
KKDSKPAFSFGISNGSE [YLR335W/NUP2],3.16 ± 0.067,3.12 ± 0.069,3.1 ± 0.044,3.15 ± 0.058
HIHKHVKDEAFDDLLKP [RET1],3.12 ± 0.11,3.4 ± 0.12,3.25 ± 0.073,3.11 ± 0.15
QNEMIDAIAVTKGHGFE [RPL3],3.08 ± 0.11,3.21 ± 0.1,3.35 ± 0.1,3.34 ± 0.076
ECFISMQSTSPAVKQWD [SWI1],2.34 ± 0.083,2.38 ± 0.058,2.4 ± 0.086,2.65 ± 0.06
NDSETHTEDESTKELKF [BRN1],3.2 ± 0.17,3.13 ± 0.13,3.17 ± 0.094,3.19 ± 0.068

Sequence,protein stability index (doa10∆),protein stability index (pdr5∆),protein stability index (san1∆),protein stability index (ubr1∆)
FERPAVKEEKEDMETQA [RPC53],2.87 ± 0.24,2.71 ± 0.23,3.2 ± 0.084,3.46 ± 0.16
NTNLMNGVNVQIDQLNR [GRR1],2.85 ± 0.052,3.06 ± 0.061,2.88 ± 0.049,2.99 ± 0.05
RSILQSLNPALQEKIST [SWI1],2.45 ± 0.056,2.79 ± 0.069,2.72 ± 0.1,2.71 ± 0.073
AQHESFLRQKICLMTLI [RPN9],1.26 ± 0.072,1.33 ± 0.082,1.15 ± 0.11,1.56 ± 0.064
LFGMCESLYEPNLEPED [PUP3],2.77 ± 0.19,3.53 ± 0.2,3.32 ± 0.081,3.27 ± 0.1
GWWGHMGGPKQKGITSY [QCR8],3.16 ± 0.072,2.13 ± 0.08,1.41 ± 0.14,1.67 ± 0.075
YQISAYQTRARQKARTD [RPR2],2.19 ± 0.027,2.31 ± 0.026,2.36 ± 0.031,2.407 ± 0.023
CNQMENLLESITKLLEI [YCS4],3.19 ± 0.083,2.8 ± 0.054,2.9 ± 0.061,2.96 ± 0.059
QSYGGRPYGVGLLIIGY [PRE5],2.96 ± 0.078,3.01 ± 0.067,2.83 ± 0.07,2.56 ± 0.071
LVGEYWEQLKITVVPVV [QCR6],1.38 ± 0.26,–,–,–
LGGPITKESQPTIEEDL [FAS2],3.02 ± 0.21,3.19 ± 0.15,2.77 ± 0.18,2.96 ± 0.069
YKKPTGGIVTVRSEMGE [FAS1],2.66 ± 0.13,1.69 ± 0.069,1.32 ± 0.18,1.39 ± 0.082
NSINKTTVPFKESDDPS [POP1],2.5 ± 0.067,2.93 ± 0.06,2.71 ± 0.072,2.36 ± 0.065
ELGEQKCQELVTNIRRI [RRP46],2.09 ± 0.072,1.81 ± 0.056,1.55 ± 0.15,1.98 ± 0.071
WALKSSLNSMTNAKLPN [RGR1],2.74 ± 0.092,2.77 ± 0.13,3.17 ± 0.052,2.39 ± 0.05
VARIYASFNDTFVHVTD [RPS14A],1.96 ± 0.06,1.73 ± 0.04,2.12 ± 0.07,2.2 ± 0.055
QQQQQNQQQQNQQPQQQ [SWI1],2.99 ± 0.041,3.06 ± 0.043,2.88 ± 0.032,2.85 ± 0.038
LLPFVKGNVGFVFTNEP [RPP0],–,1.77 ± 0.26,–,1.84 ± 0.17
RASIEYYVGQVMRNNES [DIS3],3.22 ± 0.067,3.21 ± 0.091,3.21 ± 0.053,3.26 ± 0.063
IRYNSVEIQEVPRTADR [RPC82],2.52 ± 0.063,2.64 ± 0.044,2.88 ± 0.079,2.79 ± 0.048
SVFNAELLKLLNDEYNY [YCS4],1.76 ± 0.053,2.31 ± 0.062,1.95 ± 0.095,2.47 ± 0.04
NDHSKSANPKKTTITRV [SWI3],2.9 ± 0.11,3.09 ± 0.092,3.14 ± 0.08,2.97 ± 0.051
KRPIESGTSSDPDTKKV [YIL149C/MLP2],3.35 ± 0.079,3.2 ± 0.053,3.2 ± 0.062,3.29 ± 0.072
IIDEIITQMRVNDEEEH [RPC82],3 ± 0.084,2.54 ± 0.071,3.54 ± 0.12,2.19 ± 0.079
AAAGGDAAAEEEKEEEA [RPP1B],3.32 ± 0.21,3.46 ± 0.16,3.16 ± 0.2,3.08 ± 0.23
KLRETLVKIDDLSANQR [SMC1],3.11 ± 0.11,3.29 ± 0.12,3.07 ± 0.11,3.09 ± 0.077
